From doi:10.1101/2025.09.24.25335646 (medRxiv, 2025)

B1: Fab 3_H2 (Fab, V domains shown)
VH: QGTLKESGPAMVKPTQTLTLTCTFSGFSLDTSGMCVAWIRQPPGKALEWLALFDWDNNKYYSPSLKTRLNMSKGRSRNQVVLTMTNMDPVDTGTYYCARKVYGSFYYGMDVWGQGTTVTVSS
VL: DIVLTQSPATLSLSPGDSATLSCRASQDVSANLAWYQQKPGQAPRLVIYDATNRATGIPARFSGSGLGTDFTLTISSLEPEDFAVYYCQQRSNWPPVYTFGQGTKLEIK
B2: 3_H2 monoclonal antibody (IgG1) (antibody, V domains shown)
VH: B1 VH
VL: B1 VL
B3: Fab 49_C09 (Fab, V domains shown)
VH: QSTLKESGPTLVKPTETLTLTCTFSGFSLHTSGVGVGWIRQPPGKALECLALIYWNDDARYSPSLQSRLTITKDTSKNQVVLTMSNMDPVDTATYYCAHKGGGRDGYNSAAFDVWGQGTMVTVSS
VL: SYVLTQPPSVSVAPGQTARIPCGGNNIGMKTVHWYQQRPGQAPVVVVYDDSRRPSGIPERFSGSNSGNTATLTISRVEAGDEADYYCQVWDSSVNHWVFGGGTKLTVL
B4: 49_C09 monoclonal antibody (IgG1) (antibody, V domains shown)
VH: B3 VH
VL: B3 VL

Assays:
[1] = biological target: A/New York/631/1996 H3N2 hemagglutinin head domain (HA1 43-309) (Influenza A virus A/New York/631/1996 …, strain); test: crystal structure
[2] = biological target: A/California/07/2009 H1N1 hemagglutinin, recombinant HA used for negative-stain EM (Influenza A virus A/California/07/2009 …, UniProt C3W5X2, strain); test: negative-stain EM

| Binder | binding result [1] | binding result [2] |
| --- | --- | --- |
| B1 | binds | – |
| B2 | – | binds |
| B3 | binds | – |
| B4 | – | binds |
